Patent publication US20220009992A1 (FRED HUTCHINSON CANCER CENTER, published 2022)

Molecular target: peptide #10 (from the gene EHF) presented on peptide-pulsed T2 target cells (human, UniProt P61769 21-119)
Assay: cell-based or functional assay

B1: TCR Msln530-B11 (TCR, V domains shown)
V domain 1: ETGVTQSPTHLIKTRGQQVTLRCSSQSGHNTVSWYQQALGQGPQFIFQYYREEENGRGNFPPRFSGLQFPNYSSELNVNALELDDSALYLCASSFAGGRSDTQYFGPGTRLTVLE
V domain 2: KQEVTQIPAALSVPEGENLVLNCSFTDSAIYNLQWFRQDPGKGLTSLLLIQSSQREQTSGRLNASLDKSSGRSTLYIAASQPGDSATYLCAVRLLFAQGGSEKLVFGKGTKLTVNP
EC50 of peptide for IFN-γ production, ratio to the EC50 for Msln530: > 3000 fold (EC50 for peptide #10 over EC50 for Msln530)
